Experimental data as given in patent publication US20110257036A1.

Target: BRCA1 protein (mouse) (mouse) (UniProt P48754)
Assay: cell-based or functional assay

Sequence of UniProt P48754 (P48754 whole entry): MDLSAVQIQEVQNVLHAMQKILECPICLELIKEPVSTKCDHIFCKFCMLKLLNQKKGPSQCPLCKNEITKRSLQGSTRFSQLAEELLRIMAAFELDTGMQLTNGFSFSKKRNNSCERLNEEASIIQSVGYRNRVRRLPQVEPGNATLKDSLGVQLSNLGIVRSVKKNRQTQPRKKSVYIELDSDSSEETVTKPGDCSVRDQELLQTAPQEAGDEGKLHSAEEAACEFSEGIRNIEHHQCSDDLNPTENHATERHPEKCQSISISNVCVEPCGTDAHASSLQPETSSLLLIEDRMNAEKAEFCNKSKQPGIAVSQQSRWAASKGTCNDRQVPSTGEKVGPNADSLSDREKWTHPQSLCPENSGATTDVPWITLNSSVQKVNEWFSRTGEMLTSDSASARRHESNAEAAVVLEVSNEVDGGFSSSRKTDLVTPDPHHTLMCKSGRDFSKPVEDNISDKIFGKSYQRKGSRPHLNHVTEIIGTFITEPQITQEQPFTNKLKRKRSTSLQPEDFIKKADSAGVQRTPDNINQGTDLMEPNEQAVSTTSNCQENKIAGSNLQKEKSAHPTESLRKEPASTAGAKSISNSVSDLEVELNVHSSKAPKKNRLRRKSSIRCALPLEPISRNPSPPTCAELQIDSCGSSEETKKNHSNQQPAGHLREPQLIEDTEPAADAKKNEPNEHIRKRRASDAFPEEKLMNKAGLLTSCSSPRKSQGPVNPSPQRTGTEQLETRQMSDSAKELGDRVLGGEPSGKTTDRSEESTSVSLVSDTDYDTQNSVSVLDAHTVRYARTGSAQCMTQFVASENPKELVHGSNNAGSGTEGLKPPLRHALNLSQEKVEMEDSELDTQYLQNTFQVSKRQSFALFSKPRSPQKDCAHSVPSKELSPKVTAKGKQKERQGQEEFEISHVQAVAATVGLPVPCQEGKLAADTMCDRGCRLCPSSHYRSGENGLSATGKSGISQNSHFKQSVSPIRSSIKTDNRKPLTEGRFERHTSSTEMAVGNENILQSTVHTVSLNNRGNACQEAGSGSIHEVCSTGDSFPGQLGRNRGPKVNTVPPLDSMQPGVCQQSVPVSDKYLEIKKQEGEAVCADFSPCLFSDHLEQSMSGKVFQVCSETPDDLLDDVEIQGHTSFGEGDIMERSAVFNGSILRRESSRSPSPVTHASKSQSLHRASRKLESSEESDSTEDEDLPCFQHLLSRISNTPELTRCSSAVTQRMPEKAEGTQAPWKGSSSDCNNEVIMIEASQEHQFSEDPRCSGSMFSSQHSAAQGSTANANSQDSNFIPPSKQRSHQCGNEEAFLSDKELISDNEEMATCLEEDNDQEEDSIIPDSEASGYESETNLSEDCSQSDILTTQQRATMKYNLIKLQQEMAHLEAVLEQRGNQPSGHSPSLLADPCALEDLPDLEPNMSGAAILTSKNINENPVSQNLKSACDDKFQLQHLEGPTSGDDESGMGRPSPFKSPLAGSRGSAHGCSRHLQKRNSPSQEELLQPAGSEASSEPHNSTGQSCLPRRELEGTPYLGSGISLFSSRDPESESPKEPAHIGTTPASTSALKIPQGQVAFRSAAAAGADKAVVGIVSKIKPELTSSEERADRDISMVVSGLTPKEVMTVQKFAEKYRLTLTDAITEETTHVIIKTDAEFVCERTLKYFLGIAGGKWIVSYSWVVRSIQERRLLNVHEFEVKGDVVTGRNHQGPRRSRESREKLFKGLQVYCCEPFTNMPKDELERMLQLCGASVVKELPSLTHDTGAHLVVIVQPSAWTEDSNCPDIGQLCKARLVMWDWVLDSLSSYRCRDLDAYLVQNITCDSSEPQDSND

FANCD2 protein (mouse) (from UniProt Q80V62 1-1450)
co-localization of anti-FANCD2 foci with anti-BRCA1 staining (20 pachytene nuclei): 65%
